We go through three molecules from paper PMC2877795, “Laminin chain assembly is regulated by specific coiled-coil interactions” (Journal of Structural Biology, 2010).

As a reminder, the stoichiometry N is a count of units in the complex or per binding partner.

What all share (conditions): both partners purified
Assay [1] has as its target T1, recombinant mouse laminin β1 chain C-terminal coiled-coil fragment (1561–1786) (mouse, UniProt P02469 1561-1786).
T1 construct: two residues (GlySer) left from the protease recognition site after thrombin cleavage; laminin β1 chain, mouse, C-terminal coiled-coil fragment, residues 1561-1786 of the native chain (226 residues); source: E. coli JM109(DE3), purified (Ni2+-Sepharose, denaturing, 8 M urea), 6xHis tag removed by thrombin; not shown: 6xHis, N-terminal, cleaved
T1 sequence: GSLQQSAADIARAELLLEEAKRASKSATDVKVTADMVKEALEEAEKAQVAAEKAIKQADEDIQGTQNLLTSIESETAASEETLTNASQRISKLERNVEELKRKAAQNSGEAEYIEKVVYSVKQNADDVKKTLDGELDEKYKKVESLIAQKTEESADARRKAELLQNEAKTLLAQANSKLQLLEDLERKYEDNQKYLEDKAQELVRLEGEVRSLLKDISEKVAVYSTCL
As to the kind of experiment: AUC; sedimentation equilibrium and velocity; 5 mM sodium phosphate, 150 mM NaCl, pH 7.0 (methods) or 7.4 (Table 3); 0.1-0.5 mg/ml.

Assay [2] has as its target T2, β2γ1 complex of the recombinant mouse laminin coiled-coil fragments (mouse, UniProt Q61292 1575-1799; P02468 1362-1607).
T2 construct: two residues (GlySer) left from the protease recognition site after thrombin cleavage; laminin β2 chain, mouse, residues 1575-1799 of the native chain; as m7; laminin γ1 chain, mouse, residues 1362-1607 of the native chain; as m9; in the αβγ tests all three chains were mixed, the βγ complex was not isolated beforehand; source: mixture of the purified E. coli fragments; not shown: 6xHis, …
T2 sequence 1: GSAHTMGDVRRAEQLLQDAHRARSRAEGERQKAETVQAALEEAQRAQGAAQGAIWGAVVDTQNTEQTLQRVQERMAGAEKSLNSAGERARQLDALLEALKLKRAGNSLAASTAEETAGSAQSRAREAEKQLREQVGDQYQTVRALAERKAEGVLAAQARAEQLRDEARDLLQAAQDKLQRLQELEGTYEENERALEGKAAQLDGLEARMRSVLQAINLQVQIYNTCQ
T2 sequence 2: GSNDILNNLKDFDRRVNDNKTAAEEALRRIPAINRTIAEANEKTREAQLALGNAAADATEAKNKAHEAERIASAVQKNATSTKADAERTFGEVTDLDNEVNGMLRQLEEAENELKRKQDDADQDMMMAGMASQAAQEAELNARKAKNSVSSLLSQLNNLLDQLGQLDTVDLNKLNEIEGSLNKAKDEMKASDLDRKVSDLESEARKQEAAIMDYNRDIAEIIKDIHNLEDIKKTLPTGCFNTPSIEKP
Put plainly: native gel or EMSA; mixtures of one α, one β and one γ chain fragment; 10% non-denaturing PAGE (acid gels for basic complexes); mixtures reduced, heated to 70 °C for 5 min and cooled; run overnight at 50 V, room temperature, no cooling; Coomassie; bands confirmed by in-gel trypsin digestion and mass spectrometry. On the technique in general: A gel shift assay detects complexes by their altered migration in electrophoresis.

The target of assay [3] is T3, β3γ2 complex of the recombinant mouse laminin coiled-coil fragments (mouse, UniProt Q61087 945-1168; Q61092 949-1191).
T3 construct: two residues (GlySer) left from the protease recognition site after thrombin cleavage; laminin β3 chain, mouse, residues 945-1168 of the native chain; as m8; laminin γ2 chain, mouse, residues 949-1191 of the native chain; as m10; in the αβγ tests all three chains were mixed, the βγ complex was not isolated beforehand; source: mixture of the purified E. coli fragments; not shown: 6xHis, …
T3 sequence 1: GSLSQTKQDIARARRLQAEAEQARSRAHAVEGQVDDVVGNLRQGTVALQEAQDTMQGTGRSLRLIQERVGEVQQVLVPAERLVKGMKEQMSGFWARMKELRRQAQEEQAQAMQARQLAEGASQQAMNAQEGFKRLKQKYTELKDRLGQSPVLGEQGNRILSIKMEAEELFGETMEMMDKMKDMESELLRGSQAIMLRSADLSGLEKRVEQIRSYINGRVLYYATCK
T3 sequence 2: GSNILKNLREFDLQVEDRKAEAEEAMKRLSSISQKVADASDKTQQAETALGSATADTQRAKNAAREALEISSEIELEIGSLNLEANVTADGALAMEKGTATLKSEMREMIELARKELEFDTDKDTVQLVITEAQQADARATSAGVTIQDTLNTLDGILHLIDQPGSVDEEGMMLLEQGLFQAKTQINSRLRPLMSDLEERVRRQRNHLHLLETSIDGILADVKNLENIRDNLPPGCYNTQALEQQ
The description is as above.

Assay [4] concerns the target T4, β1γ2 complex of the recombinant mouse laminin coiled-coil fragments (mouse, UniProt P02469 1561-1786; Q61092 949-1191).
T4 construct: two residues (GlySer) left from the protease recognition site after thrombin cleavage; laminin β1 chain, mouse, residues 1561-1786 of the native chain; as m6; laminin γ2 chain, mouse, residues 949-1191 of the native chain; as m10; alone a heterotetramer by AUC (most likely two β1 and two γ2 chains); one chain of each in the trimer with α3; in the αβγ tests all three chains were mixed; also called …
T4 sequence 1: T1 sequence
T4 sequence 2: T3 sequence 2
Put plainly: AUC; sedimentation equilibrium and velocity; 5 mM sodium phosphate, 150 mM NaCl, pH 7.0 (methods) or 7.4 (Table 3); 0.1-0.5 mg/ml.

Assay [5] deals with T5, β1γ1 complex of the recombinant mouse laminin coiled-coil fragments (mouse, UniProt P02469 1561-1786; P02468 1362-1607).
T5 construct: two residues (GlySer) left from the protease recognition site after thrombin cleavage; laminin β1 chain, mouse, residues 1561-1786 of the native chain; as m6; laminin γ1 chain, mouse, residues 1362-1607 of the native chain; as m9; heterodimer by AUC; in the αβγ tests all three chains were mixed, the βγ complex was not isolated beforehand; source: mixture of the purified E. coli fragments; not …
T5 sequence 1: T1 sequence
T5 sequence 2: T2 sequence 2
The assay is described as above.

In assay [6] the target is T1, recombinant mouse laminin β1 chain …. The assay is described as above. This is another data set of the same source.

B1: recombinant mouse laminin γ2 chain C-terminal coiled-coil fragment (949–1191) (domain or fragment)
chain: T3 sequence 2
notes: two residues (GlySer) left from the protease recognition site after thrombin cleavage; laminin γ2 chain, mouse, C-terminal coiled-coil fragment, residues 949-1191 of the native chain (243 residues); source: E. coli JM109(DE3), purified (Ni2+-Sepharose, denaturing, 8 M urea), 6xHis tag removed by thrombin; not shown: 6xHis, N-terminal, cleaved; pPEP-T leader (short C-terminal fragment of the …)
On to B1, for which the “stoichiometry N” value in assay [1] was 1 γ2 per β1 (2:2).

B2: recombinant mouse laminin α3 chain C-terminal coiled-coil fragment (2176–2397) (domain or fragment)
chain: GSYENILNAIRAAEDAASKATSASKSAFQTVIKEDLPKRAKTLSSDSEELLNEAKMTQKRLQQVSPALNSLQQTLKTVSVQKDLLDANLTVARDDLHGIQRGDIDSVVIGAKSMVREANGITSEVLDGLNPIQTDLGRIKDSYESARREDFSKALVDANNSVKKLTRKLPDLFIKIESINQQLLPLGNISDNVDRIRELIQQARDAANKVAIPMRFNGKSGVEV
notes: two residues (GlySer) left from the protease recognition site after thrombin cleavage; laminin α3 chain, mouse, C-terminal coiled-coil fragment, residues 2176-2397 of the native chain (222 residues); the printed numbers fit the long (α3B) form; source: E. coli JM109(DE3), purified (Ni2+-Sepharose, denaturing, 8 M urea), 6xHis tag removed by thrombin; not shown: 6xHis, N-terminal, cleaved; pPEP-T …
With B2, the binding result in assay [2] and in assay [3] was “binds” each time. For the same molecule, the “stoichiometry N” value in assay [4] and in assay [5] was 1 throughout.

B3: recombinant mouse laminin γ1 chain C-terminal coiled-coil fragment (1362–1607) (domain or fragment)
chain: T2 sequence 2
notes: two residues (GlySer) left from the protease recognition site after thrombin cleavage; laminin γ1 chain, mouse, C-terminal coiled-coil fragment, residues 1362-1607 of the native chain (246 residues); source: E. coli JM109(DE3), purified (Ni2+-Sepharose, denaturing, 8 M urea), 6xHis tag removed by thrombin; not shown: 6xHis, N-terminal, cleaved; pPEP-T leader (short C-terminal fragment of the …)
Regarding B3, the “stoichiometry N” value in assay [6] worked out at 1.
